Experimental findings from article PMC10099716, “A De Novo Sequence Variant in Barrier-to-Autointegration Factor Is Associated with Dominant Motor Neuronopathy” are described below.

Data set [1] deals with Barrier-to-autointegration factor Gly16Arg variant (BAF Gly16Arg), all cysteines replaced with alanines (human) (UniProt O75531). In words: SEC; gel filtration of purified, refolded BAF on a Superdex 200 pg HiLoad 16/600 column; elution profiles of WT and Gly16Arg compared. (Size exclusion chromatography separates by hydrodynamic size, large species first.)
Data set [2] has as its target Barrier-to-autointegration factor wild type (BAF WT), all cysteines replaced with alanines (human) (UniProt O75531). In words: ITC; VP-ITC; 10-20 µM monomeric BAF (WT or Gly16Arg) in the cell, 100 µM lamin A/C IgFold domain in the syringe; 50 mM Hepes pH 7.4, 150 mM NaCl; 288 K; duplicate, mean values; stoichiometry set to 0.5 (one IgFold domain for each BAF dimer assumed). Background: Isothermal titration calorimetry measures the heat released or taken up as one component is titrated into another.

Data set [3] has as its target Barrier-to-autointegration factor Gly16Arg variant (BAF Gly16Arg), all cysteines replaced with alanines (human) (UniProt O75531). Described as above.
In data set [4] the target is T1, BAF Gly16Arg (Cys-to-Ala background) (Homo sapiens, UniProt O75531 1-89, G16R;C67A;C77A;C80A;C85A).
T1 sequence: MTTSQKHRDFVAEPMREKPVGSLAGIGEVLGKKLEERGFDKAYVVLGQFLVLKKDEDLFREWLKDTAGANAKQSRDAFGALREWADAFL
Briefly: ITC; unphosphorylated; 288 K; mean of 2; ITC: 50 mM Hepes pH 7.4, 150 mM NaCl, 288 K; 10-20 uM BAF monomer in cell, 31-33 uM dsDNA in syringe. The note with it: protein: recombinant; tags: His8-TEV, cleaved; chain copies: 2.

Data set [5] deals with T2, BAF WT (Cys-to-Ala background) (Homo sapiens, UniProt O75531 1-89, C67A;C77A;C80A;C85A).
T2 sequence: T1 sequence with R16G
Described as above. The note with it: protein: recombinant; tags: His8-TEV, cleaved; chain copies: 2.

Numbering of substitutions follows the chain as printed.

With “Barrier-to-autointegration factor Gly16Arg variant (BAF Gly16Arg), all cysteines replaced with alanines (from UniProt O75531 1-89) (natural protein)”, the stoichiometry N – broadly, the number of molecules, sites or subunits per partner or assembly – in data set [1] was determined as 2. With “lamin A/C IgFold domain (human lamin A/C residues 411 to 566) (from UniProt P02545 411-566) (domain or fragment)”, the Kd (usually the equilibrium constant for the complex coming apart) was 2700 nM in data set [2] and 9000 nM in data set [3].

B1: 22-nt dsDNA (dsDNA)
DNA 1: CTAGGGTTAGGGTTAGGGTTAG
DNA 2: CTAACCCTAACCCTAACCCTAG
Consider B1, for which the Kd in data set [4] was 16.3 ± 5.7 nM; in data set [5] it was 117 ± 58 nM.
